# Data taken from IntAct's records for PubMed 18387954.
# B1: Src substrate cortactin (Homo sapiens), Q14247 (parent)
# chain: MWKASAGHAVSIAQDDAGADDWETDPDFVNDVSEKEQRWGAKTVQGSGHQEHINIHKLRENVFQEHQTLKEKELETGPKASHGYGGKFGVEQDRMDKSAVGHEYQSKLSKHCSQVDSVRGFGGKFGVQMDRVDQSAVGFEYQGKTEKHASQKDYSSGFGGKYGVQADRVDKSAVGFDYQGKTEKHESQRDYSKGFGGKYGIDKDKVDKSAVGFEYQGKTEKHESQKDYVKGFGGKFGVQTDRQDKCALGWDHQEKLQLHESQKDYKTGFGGKFGVQSERQDSAAVGFDYKEKLAKHESQQDYSKGFGGKYGVQKDRMDKNASTFEDVTQVSSAYQKTVPVEAVTSKTSNIRANFENLAKEKEQEDRRKAEAERAQRMAKERQEQEEARRKLEEQARAKTQTPPVSPAPQPTEERLPSSPVYEDAASFKAELSYRGPVSGTEPEPVYSMEAADYREASSQQGLAYATEAVYESAEAPGHYPAEDSTYDEYENDLGITAVALYDYQAAGDDEISFDPDDIITNIEMIDDGWWRGVCKGRYGLFPANYVELRQ
# partner: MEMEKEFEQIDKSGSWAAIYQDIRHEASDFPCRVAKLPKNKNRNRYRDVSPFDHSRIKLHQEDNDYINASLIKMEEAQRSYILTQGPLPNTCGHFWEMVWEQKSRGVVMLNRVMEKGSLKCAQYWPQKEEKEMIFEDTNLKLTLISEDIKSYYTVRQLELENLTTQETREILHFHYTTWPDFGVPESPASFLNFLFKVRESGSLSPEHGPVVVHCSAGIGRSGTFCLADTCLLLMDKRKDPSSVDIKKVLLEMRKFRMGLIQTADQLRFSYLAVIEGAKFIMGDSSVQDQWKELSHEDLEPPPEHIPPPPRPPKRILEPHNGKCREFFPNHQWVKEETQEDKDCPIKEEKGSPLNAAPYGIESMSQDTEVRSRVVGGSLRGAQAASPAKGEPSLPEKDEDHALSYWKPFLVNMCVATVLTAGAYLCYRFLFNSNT
# Variants of: B1
# Conditions: with ptn1_human PTPN1, P18031
row,effect of a mutation on the interaction,Variant
1,disrupting interaction,Y446F
